B1: GFP lamin A WT [human] / GST Nesprin-2 SR52,53 [human] (parent complex)
chain 1: METPSQRRATRSGAQASSTPLSPTRITRLQEKEDLQELNDRLAVYIDRVRSLETENAGLRLRITESEEVVSREVSGIKAAYEAELGDARKTLDSVAKERARLQLELSKVREEFKELKARNTKKEGDLIAAQARLKDLEALLNSKEAALSTALSEKRTLEGELHDLRGQVAKLEAALGEAKKQLQDEMLRRVDAENRLQTMKEELDFQKNIYSEELRETKRRHETRLVEIDNGKQREFESRLADALQELRAQHEDQVEQYKKELEKTYSAKLDNARQSAERNSNLVGAAHEELQQSRIRIDSLSAQLSQLQKQLAAKEAKLRDLEDSLARERDTSRRLLAEKEREMAEMRARMQQQLDEYQELLDIKLALDMEIHAYRKLLEGEEERLRLSPSPTSQRSRGRASSHSSQTQGGGSVTKKRKLESTESRSSFSQHARTSGRVAVEEVDEEGKFVRLRNKSNEDQSMGNWQIKRQNGDDPLLTYRFPPKFTLKAGQVVTIWAAGAGATHSPPTDLVWKAQNTWGCGNSLRTALINSTGEEVAMRKLVRSVTVVEDDEDEDGDDLLHHHHGSHCSSSGDPAEYNLRSRTVLCGTCGQPADKASASGSGAQVGGPISSGSSASSVTVTRSYRSVGGSGGGSFGDNLVTRSYLLGNSSPRTQSPQNCSIM
chain 2: SRFEDWLKSAERTAACPNSSEVLYTSAKEELKRFEAFQRQIHERLTQLELINKQYRRLARENRTDTASRLKQMVHEGNQRWDNLQRRVTAVLRRLRHFTNQREEFEGTRESILVWLTEMDLQLTNVEHFSESDADDKMRQLNGFQQEITLNTNKIDQLIVFGEQLIQKSEPLDAVLIEDELEELHRYCQEVFGRVSRFHRRL

Variants of: B1
Test: GST pull-down, western blot quantification; COS7 cell lysates; four to seven independent experiments; parent: 0; read off a plot

screen value	Variant
~-10%	chain 1 R419C
~11%	chain 1 G411D
~-22%	chain 1 G413C
~51%	chain 1 R401C
~-29%	chain 1 L421P
~55%	chain 1 V415I
~-15%	chain 1 R427G

— paper PMC3748058 (2013)
